# Positions count from the first letter of the chain named. Where two headings read alike, the source gives them in different places.
# T1: recombinant human Trop-2-his protein (ACCESSION NO.: NP_002344.2, AA 1-274) (human, UniProt P09758 27-274)
# T1 construct: range 27-274; also called recombinant human Trop-2 protein; recombinant human Trop-2 extracellular domain; not shown: his tag
# T1 sequence (looked up): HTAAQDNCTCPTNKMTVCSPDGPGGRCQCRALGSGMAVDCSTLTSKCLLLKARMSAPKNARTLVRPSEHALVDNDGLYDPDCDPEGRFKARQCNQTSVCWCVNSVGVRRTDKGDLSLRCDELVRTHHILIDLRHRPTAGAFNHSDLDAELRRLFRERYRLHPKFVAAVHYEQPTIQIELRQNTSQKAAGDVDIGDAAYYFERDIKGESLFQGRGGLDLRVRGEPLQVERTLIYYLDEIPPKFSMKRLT
# B1: h23-12-20 (antibody, human IgG1, kappa, V domains shown)
# VH: QVQLVQSGAEVKKPGASVKVSCKASGYTFTSYWMHWVRQAPGQGLEWMGEITPSDNYTSYNQKFKGRVTITRDTSTSTAYMELSSLRSEDTAVYYCARGEGNYVSFDYWGQGTLVTVSS
# VL: DIQMTQSPSSLSASVGDRVTITCRASQDISNYLNWYQQKPGKAPKLLIYYTSSLHSGVPSRFSGSGSGTDFTLTISSLQPEDFATYFCQQGYTLPPYTFGQGTKLEIKR
# B2: h23-12-21 (antibody, human IgG1, kappa, V domains shown)
# VH: B1 VH with E100Q
# VL: B1 VL
# B3: h23-12-22 (antibody, human IgG1, kappa, V domains shown)
# VH: B1 VH with E100H
# VL: B1 VL with S53R, H55E
# B4: h23-12-23 (antibody, human IgG1, kappa, V domains shown)
# VH: B1 VH with S54G, E100H
# VL: B1 VL with S53R, H55E
# B5: h23-12-24 (antibody, human IgG1, kappa, V domains shown)
# VH: B1 VH with N56G, E100H
# VL: B1 VL with S53R, H55E
# B6: h23-12-26 (antibody, human IgG1, kappa, V domains shown)
# VH: B1 VH with N61A, E100H
# VL: B1 VL with S53R, H55E
# B7: h23-12-27 (antibody, human IgG1, kappa, V domains shown)
# VH: B1 VH
# VL: B1 VL with S53R, H55E
# B8: h23-12-28 (antibody, human IgG1, kappa, V domains shown)
# VH: B1 VH with E100Q
# VL: B1 VL with S53R, H55E
# B9: h23-12-29 (antibody, human IgG1, kappa, V domains shown)
# VH: B1 VH with E100H
# VL: B1 VL with S53R, H55Q
# B10: h23-12-30 (antibody, human IgG1, kappa, V domains shown)
# VH: B1 VH with S54G, E100H
# VL: B1 VL with S53R, H55Q
# B11: h23-12-31 (antibody, human IgG1, kappa, V domains shown)
# VH: B1 VH with N56G, E100H
# VL: B1 VL with S53R, H55Q
# B12: h23-12-32 (antibody, human IgG1, kappa, V domains shown)
# VH: B1 VH with T58G, E100H
# VL: B1 VL with S53R, H55Q
# B13: h23-12-33 (antibody, human IgG1, kappa, V domains shown)
# VH: B1 VH with N61A, E100H
# VL: B1 VL with S53R, H55Q
# B14: h23-12-34 (antibody, human IgG1, kappa, V domains shown)
# VH: B1 VH
# VL: B1 VL with S53R, H55Q
# B15: h23-12-35 (antibody, human IgG1, kappa, V domains shown)
# VH: B1 VH with E100Q
# VL: B1 VL with S53R, H55Q
# B16: h23-12-36 (antibody, human IgG1, kappa, V domains shown)
# VH: B1 VH with E100H
# VL: B1 VL with S53R, G91Y
# B17: h23-12-37 (antibody, human IgG1, kappa, V domains shown)
# VH: B1 VH with S54G, E100H
# VL: B1 VL with S53R, G91Y
# B18: h23-12-38 (antibody, human IgG1, kappa, V domains shown)
# VH: B1 VH with N56G, E100H
# VL: B1 VL with S53R, G91Y
# B19: h23-12-39 (antibody, human IgG1, kappa, V domains shown)
# VH: B1 VH with T58G, E100H
# VL: B1 VL with S53R, G91Y
# B20: h23-12-40 (antibody, human IgG1, kappa, V domains shown)
# VH: B1 VH with N61A, E100H
# VL: B1 VL with S53R, G91Y
# B21: h23-12-41 (antibody, human IgG1, kappa, V domains shown)
# VH: B1 VH
# VL: B1 VL with S53R, G91Y
# B22: h23-12-42 (antibody, human IgG1, kappa, V domains shown)
# VH: B1 VH with E100Q
# VL: B1 VL with S53R, G91Y
# B23: h23-12-43 (antibody, human IgG1, kappa, V domains shown)
# VH: B1 VH with E100H
# VL: B1 VL with S53R, T93S
# B24: h23-12-44 (antibody, human IgG1, kappa, V domains shown)
# VH: B1 VH with S54G, E100H
# VL: B1 VL with S53R, T93S
# B25: h23-12-45 (antibody, human IgG1, kappa, V domains shown)
# VH: B1 VH with N56G, E100H
# VL: B1 VL with S53R, T93S
# B26: h23-12-46 (antibody, human IgG1, kappa, V domains shown)
# VH: B1 VH with T58G, E100H
# VL: B1 VL with S53R, T93S
# B27: h23-12-47 (antibody, human IgG1, kappa, V domains shown)
# VH: B1 VH with N61A, E100H
# VL: B1 VL with S53R, T93S
# B28: h23-12-48 (antibody, human IgG1, kappa, V domains shown)
# VH: B1 VH
# VL: B1 VL with S53R, T93S
# B29: h23-12-49 (antibody, human IgG1, kappa, V domains shown)
# VH: B1 VH with E100Q
# VL: B1 VL with S53R, T93S
# B30: h4-3-2 (antibody, human IgG1, kappa, V domains shown)
# VH: EVQLVQSGPEVKKPGASVKVSCKASGFTFTDYVIGWVRQAPGQGLEWIGEIYLGSGTIYYAEKFKGRVTMTADTSTSTAYMELSSLRSEDTAVYYCARGSIFPFDYWGQGTLVTVSS
# VL: DIQLTQSPSSLSASVGDRVTITCSASSSVSYMYWYQQKPGKAPKLLIYDTSTLASGVPSRFSGSGSGTDFTLTISSLQPEDFATYYCQQWSSYPYTFGQGTKLEIKR
# B31: h4-3-3 (antibody, human IgG1, kappa, V domains shown)
# VH: B30 VH with A61T, E62Q
# VL: B30 VL
# B32: h4-3-4 (antibody, human IgG1, kappa, V domains shown)
# VH: B30 VH with A61T, P103Y
# VL: B30 VL
# B33: h4-3-5 (antibody, human IgG1, kappa, V domains shown)
# VH: B30 VH with A61T
# VL: B30 VL with S24R
# B34: h4-3-6 (antibody, human IgG1, kappa, V domains shown)
# VH: B30 VH
# VL: B30 VL with S24R
# B35: h4-3-7 (antibody, human IgG1, kappa, V domains shown)
# VH: B30 VH with A61T, E62Q
# VL: B30 VL with S24R
# B36: h4-3-8 (antibody, human IgG1, kappa, V domains shown)
# VH: B30 VH with A61T, P103Y
# VL: B30 VL with S24R
# B37: h4-3-9 (antibody, human IgG1, kappa, V domains shown)
# VH: B30 VH with A61T
# VL: B30 VL with T50A
# B38: h4-3-10 (antibody, human IgG1, kappa, V domains shown)
# VH: B30 VH
# VL: B30 VL with T50A
# B39: h4-3-11 (antibody, human IgG1, kappa, V domains shown)
# VH: B30 VH with A61T, E62Q
# VL: B30 VL with T50A
# B40: h4-3-12 (antibody, human IgG1, kappa, V domains shown)
# VH: B30 VH with A61T, P103Y
# VL: B30 VL with T50A
# Experiments:
# [1] = molecular target: T1, recombinant human Trop-2-his protein …; assay: BLI, antibody on AHC sensor, Trop-2-his 60 nM
# Procedure: (§1) 5-6 days after cell transfection, culture supernatants were purified through ProA affinity chromatography column to obtain different humanized antibodies. Affinities of the obtained antibodies were determined by an assay including capturing Fc fragments of the antibodies with anti-human IgG Fc capture (AHC) biosensors using Octet QKe system instrument from Fortebio. For the assay, each of the humanized antibodies and control antibody Sacituzumab was diluted to 4 μg/ml in PBS, and was allowed to flow through the surface of an AHC biosensor (Cat.: 18-0015, PALL) for 120 s. Recombinant human Trop-2-his protein (ACCESSION NO.: NP_002344.2, AA 1-274) was used as a mobile phase, and its concentration was 60 nM. The binding time was 100 s and the dissociation time was 300 s. When the assay was finished, data from which the response values of blank control had been deducted were fitted to a 1:1 Langmuir binding model using software, and then kinetic constants for antigen-antibody binding were calculated.
# Affinities of the antibodies obtained from the combinations of mutants of murine antibody 23-12, chimeric antibody ch23-12 and control antibody Sacituzumab to recombinant human Trop-2-his protein were determined by ForteBijo (Table 5).
# [2] = molecular target: T1, recombinant human Trop-2-his protein …; assay: BLI, antibody on AHC sensor, Trop-2-his 60 nM; remark: listed apart in the source
# Procedure: as §1
# Affinities of the antibodies obtained from the combinations of mutants of murine antibody 23-12, chimeric antibody ch4-3 and control antibody Sacituzumab to recombinant human Trop-2-his protein were determined by ForteBio (Table 8).
Binder,Kd [1],Kd [2]
B1,1.46 nM,
B2,22.8 nM,
B3,1.3 nM,
B4,0.77 nM,
B5,5.21 nM,
B6,5.43 nM,
B7,0.496 nM,
B8,4.13 nM,
B9,6.72 nM,
B10,9.76 nM,
B11,63.9 nM,
B12,0.601 nM,
B13,8.91 nM,
B14,5.57 nM,
B15,9.77 nM,
B16,8.81 nM,
B17,0.893 nM,
B18,7.86 nM,
B19,0.492 nM,
B20,2.16 nM,

Binder,Kd [1],Kd [2]
B21,0.782 nM,
B22,3.09 nM,
B23,0.98 nM,
B24,0.717 nM,
B25,4.09 nM,
B26,0.312 nM,
B27,2.31 nM,
B28,0.405 nM,
B29,2.99 nM,
B30,,0.411 nM
B31,,0.501 nM
B32,,0.636 nM
B33,,0.273 nM
B34,,0.397 nM
B35,,0.466 nM
B36,,0.862 nM
B37,,0.317 nM
B38,,0.763 nM
B39,,0.802 nM
B40,,1.03 nM
